Patent US20260193323

Columns and labels:
[1] = tested on: T1, LEKTI Domain 6 (ct His6 tag)
T1 sequence: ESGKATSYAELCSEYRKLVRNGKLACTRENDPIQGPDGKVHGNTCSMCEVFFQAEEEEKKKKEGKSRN

[2] = tested on: T2, recombinantly produced LEKTI Domain 6
T2 sequence: T1 sequence

trypsin was tested, and the “trypsin activity (L-BAPNA substrate, 405 nm)” value [1] was “recombinantly produced LEKTI Domain 6 (ct His6 tag) inhibits trypsin in vitro compared to LEKTI domains 10-15” and the “Trypsin activity (rate of change in the absorbance at 405 nm, L-BAPNA cleavage, per minute)” value [2] was “LEKTI Domain 6 inhibited trypsin activity in vitro”.
